Assay [1] has as its target T1, germ cell alkaline phosphatase (human, UniProt P10696).
T1 chain: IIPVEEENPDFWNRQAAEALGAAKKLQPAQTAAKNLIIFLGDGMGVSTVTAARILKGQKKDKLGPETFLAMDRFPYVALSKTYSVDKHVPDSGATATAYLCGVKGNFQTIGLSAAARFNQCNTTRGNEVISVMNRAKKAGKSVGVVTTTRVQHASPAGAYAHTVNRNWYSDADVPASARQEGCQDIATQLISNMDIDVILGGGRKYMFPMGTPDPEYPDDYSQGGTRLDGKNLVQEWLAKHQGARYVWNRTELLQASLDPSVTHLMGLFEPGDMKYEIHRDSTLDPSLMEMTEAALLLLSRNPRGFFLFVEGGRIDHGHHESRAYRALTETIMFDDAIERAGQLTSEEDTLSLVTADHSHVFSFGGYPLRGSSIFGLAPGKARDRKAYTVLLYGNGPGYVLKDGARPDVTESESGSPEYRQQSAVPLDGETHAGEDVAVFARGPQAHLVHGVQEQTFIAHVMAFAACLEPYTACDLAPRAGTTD
Put plainly: other, western blot. A general note: A western blot detects proteins with antibodies after separation by electrophoresis.

Assay [2] deals with T2, placental alkaline phosphatase (human, UniProt P05187).
T2 chain: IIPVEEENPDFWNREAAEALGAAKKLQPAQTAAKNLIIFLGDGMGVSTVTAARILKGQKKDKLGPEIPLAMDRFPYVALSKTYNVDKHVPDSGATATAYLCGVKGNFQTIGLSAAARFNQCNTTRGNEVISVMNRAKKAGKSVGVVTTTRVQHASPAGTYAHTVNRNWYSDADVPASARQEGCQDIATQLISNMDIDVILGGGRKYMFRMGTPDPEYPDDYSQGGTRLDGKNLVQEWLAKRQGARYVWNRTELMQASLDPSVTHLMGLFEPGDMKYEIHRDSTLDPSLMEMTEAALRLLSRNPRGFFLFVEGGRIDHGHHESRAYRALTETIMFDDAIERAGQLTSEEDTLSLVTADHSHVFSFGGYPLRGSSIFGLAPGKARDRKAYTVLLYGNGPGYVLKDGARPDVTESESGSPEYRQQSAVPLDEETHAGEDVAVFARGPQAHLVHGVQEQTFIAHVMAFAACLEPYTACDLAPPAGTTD
The experiment in a line: other, western blot.

Assay [3] deals with T3, tissue-nonspecific alkaline phosphatase (human, UniProt P05186).
T3 chain: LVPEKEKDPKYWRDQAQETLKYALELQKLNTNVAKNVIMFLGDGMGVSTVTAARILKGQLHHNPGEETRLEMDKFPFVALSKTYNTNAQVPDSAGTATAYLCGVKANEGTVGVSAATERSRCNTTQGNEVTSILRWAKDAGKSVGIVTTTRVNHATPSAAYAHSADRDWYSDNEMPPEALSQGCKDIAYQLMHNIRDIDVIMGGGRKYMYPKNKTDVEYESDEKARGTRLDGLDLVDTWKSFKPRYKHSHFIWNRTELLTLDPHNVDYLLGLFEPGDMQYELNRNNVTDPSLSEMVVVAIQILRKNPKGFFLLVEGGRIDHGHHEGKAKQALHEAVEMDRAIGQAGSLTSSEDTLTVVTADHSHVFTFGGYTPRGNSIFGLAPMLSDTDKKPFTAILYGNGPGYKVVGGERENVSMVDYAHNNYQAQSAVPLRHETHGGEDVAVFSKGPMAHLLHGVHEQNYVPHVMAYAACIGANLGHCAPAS
The experiment in a line: other, western blot.

For another assay, the target named is T4, 2-hsALPI peptide (human, intestinal alkaline phosphatase aa234-250).
T4 chain: PEYPADASQNGIRLDGK
Put plainly: ELISA. For orientation: An ELISA detects its analyte on a solid surface through an enzyme-linked reagent.

Another assay addresses T5, 6-hsALPI peptide (human, intestinal alkaline phosphatase aa416-438).
T5 chain: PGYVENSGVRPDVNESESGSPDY
Put plainly: ELISA.

For two molecules, binding result and Kd results are on record in patent US20260317448 (published 2026).

B1: CDI005E8 (antibody, V domains shown)
VH: CQSLEESGGGLVQPGASLTLTCTASGFSFTNNYWIYWVRQAPGKGLEWIGSVIISSSSAYYASWAKGRFTITKPSSTTVTLQVTSLTAADTATYFCVTGGILWGPGTLVTVSS
VL: MDTRAPTQLLGLLLLWLPGARCDVVMTQTPASVEAAVGGTVTIKCQASQSIGTALAWYQQKPGQPPKRLIYKASTLTSGVPSRFKGSGSGTDFTLTISDLECADAATYYCQCTVDDSSSGSSYGNAFGGGTEVVVRG
What is called Kd is the equilibrium constant for the complex coming apart. A low value points to tighter binding. For the molecule B1, the binding result in assay [1], in assay [2] and in assay [3] was “no binding” in each case. For the same molecule, the dissociation constant (Kd) in the assay with 2-hsALPI peptide turned out to be 0.00711 nM.

B2: CDI022E3 (antibody, V domains shown)
VH: CQSLEESGGRLVTPGTPLTLTCTVSGIDLSTYAMGWVRQAPGEGLEWIGTIGVSGSTYYASWAKGRFTISKTSTTVDLKMTSPATEDTATYFCARGSVWGPGTLVTVSL
VL: AQVLTQTPASVEAAVGGTVTIKCQASQSISTWLAWYQQKPGQAPKRLIYSASTLASGVSSRFKGSGSGTEFTLTISDLECADAATYYCRCSYGKSYGEAFGGGTEVVVKG
In the case of B2, the figures for the equilibrium dissociation constant (Kd) in the assay with 6-hsALPI peptide and with 2-hsALPI peptide were 0.2 nM and 0.021 nM, respectively.
